The values that follow come from the supplement of paper PMC10567573.

A short description of the series: protein stability index of a GFP-peptide fusion (GPS, HEK-293T) (PSI 1-6); higher = more stable. To be noted: c terminus: a fixed tail appended.

± gives the standard deviation.
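Note: 24-mer peptide tiles fused after GFP, lentivirally expressed, FACS-sorted into six equal bins by GFP/DsRed ratio, decoded by Illumina sequencing, PSI is the read-weighted mean bin number.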

On to KSSSVDSELTSLCQSVLEDFNLCL [SMG5], for which the protein stability index was determined as 2.95 ± 0.25 (treatment: DMSO) and 2.97 ± 0.3 (treatment: MLN4924 1 uM, 8 h).

As to KSTMDAISAEGFTDIDIDTLCAVL [BTBD1], the protein stability index by setting is: (treatment: DMSO) 2.21 ± 0.22; (treatment: MLN4924 1 uM, 8 h) 2.33 ± 0.3.

As for KTEITDLRRTMQELEIELQSQLSM [KRT15], the protein stability index is 3.79 ± 0.39 (treatment: DMSO) and 3.5 ± 0.24 (treatment: MLN4924 1 uM, 8 h).

As for KTGILILILSIIFIEGYCTPEEVI [MAGEA10], the protein stability index came out at 3.53 ± 0.9 (treatment: DMSO) and 2.63 ± 0.36 (treatment: MLN4924 1 uM, 8 h).

With KTILGNAHDNSEELERARELKEKE [ANKRD44], the protein stability index was 5.62 ± 0.16 (treatment: DMSO) and 5.51 ± 0.21 (treatment: MLN4924 1 uM, 8 h).

The sequence KTKVPSNDNSSDLLYDDLYDDDID [UBE2R2] returned a protein stability index (treatment: DMSO) of 5.28 ± 0.43 and a protein stability index (treatment: MLN4924 1 uM, 8 h) of 5.38 ± 0.36.

Turning to KTLQPTKQPNCSSLFKLKPLSNKT [PLD5], the protein stability index runs as follows: (treatment: DMSO) 3.08 ± 0.17; (treatment: MLN4924 1 uM, 8 h) 3.09 ± 0.35.

Take KTPPSSCDSTNAAIAKQALKKPIK [KMT5A]: the protein stability index reads like this: (treatment: DMSO) 5.11 ± 0.12; (treatment: MLN4924 1 uM, 8 h) 5.15 ± 0.3.

In turn, KTRQKSEKQMEEKRRANQKSSAQG [PPEF2] returned a protein stability index (treatment: DMSO) of 5.25 ± 0.27 and a protein stability index (treatment: MLN4924 1 uM, 8 h) of 5.3 ± 0.2.

Consider KTVSLQIFSVLNSDDAAAPALETQ [SMOC2], for which the protein stability index is 3.2 ± 0.59 (treatment: DMSO) and 3.56 ± 0.38 (treatment: MLN4924 1 uM, 8 h).

Consider KVIVVMRSLFIDRTIVKGYNENVY [MED27], for which the protein stability index reads like this: (treatment: DMSO) 2.77 ± 0.39; (treatment: MLN4924 1 uM, 8 h) 3.29 ± 0.33.

In the case of KVRSYVKRALAEGAQIWCGEGVDK [ALDH8A1], the protein stability index is, setting by setting: (treatment: DMSO) 2.77 ± 0.098; (treatment: MLN4924 1 uM, 8 h) 2.78 ± 0.29.

Turning to KYQANITETQRLGLAMALEPNTTF [FANCE], the protein stability index runs as follows: (treatment: DMSO) 3.36 ± 0.17; (treatment: MLN4924 1 uM, 8 h) 3.4 ± 0.15.

LAAALAQHSVPLQLELRAGAERLD [TRADD]: the protein stability index worked out at 2.97 ± 0.36 (treatment: DMSO) and 2.94 ± 0.12 (treatment: MLN4924 1 uM, 8 h).

For the sequence LAALCLAGPPAPARACQLPSEWRP [CCDC3], the protein stability index worked out at 2.96 ± 0.2 (treatment: DMSO) and 2.92 ± 0.058 (treatment: MLN4924 1 uM, 8 h).

On to LAEVAPVVTTEHILVSVAAGVSLS [PYCR3], for which the protein stability index (treatment: DMSO) was 2.22 ± 0.27 and the protein stability index (treatment: MLN4924 1 uM, 8 h) amounted to 2.44 ± 0.21.

Turning to LAHLAPLFDNPKLDKELRAMLREK [INTS3], the protein stability index is, setting by setting: (treatment: DMSO) 2.6 ± 0.41; (treatment: MLN4924 1 uM, 8 h) 2.65 ± 0.5.

As to LARADLEMQIENLKEELAYLKKNH [KRT17], the protein stability index runs as follows: (treatment: DMSO) 3.12 ± 0.35; (treatment: MLN4924 1 uM, 8 h) 3.21 ± 0.45.

As to LAVSNMGARSKGQCPEPPIVVHCS [PTPN9], the protein stability index reads like this: (treatment: DMSO) 3 ± 0.33; (treatment: MLN4924 1 uM, 8 h) 2.95 ± 0.28.

For LDKKVEKVTISNRLVSSPCCIVTS [HSP90AB1], the protein stability index came out at 3.28 ± 0.34 (treatment: DMSO) and 2.98 ± 0.27 (treatment: MLN4924 1 uM, 8 h).

As to LDNNASASGNATQTESGSEEVSST [C10orf62], the protein stability index is 5.7 ± 0.2 (treatment: DMSO) and 5.64 ± 0.15 (treatment: MLN4924 1 uM, 8 h).

Turning to LDSQTEIYQYVQNSMAPHPARDYV [DLC1], the protein stability index is, setting by setting: (treatment: DMSO) 2.99 ± 0.42; (treatment: MLN4924 1 uM, 8 h) 3.09 ± 0.25.

As for LEAEKLVMFQRRYYKPGLLMMCFI [SCD], the protein stability index by setting is: (treatment: DMSO) 3.26 ± 0.91; (treatment: MLN4924 1 uM, 8 h) 2.8 ± 0.44.

With LEASVQDDAGTSGGPSSPPSDPPA [C2CD2L], the protein stability index runs as follows: (treatment: DMSO) 5.53 ± 0.31; (treatment: MLN4924 1 uM, 8 h) 5.66 ± 0.12.

Consider LEDIYVMPEYRGQGIGSKIIKKVA [SAT2], for which the protein stability index (treatment: DMSO) amounted to 3.45 ± 0.37 and the protein stability index (treatment: MLN4924 1 uM, 8 h) came out at 3.79 ± 0.27.

Under “treatment: DMSO”, LEERRVKEVVKKHSQFIGYPITLY [HSP90AB1] displayed a protein stability index of 2.48 ± 0.068.

Regarding LELGHWLYQTELVENECYQVFLDR [TOR1AIP2], the protein stability index by setting is: (treatment: DMSO) 2.38 ± 0.038; (treatment: MLN4924 1 uM, 8 h) 2.26 ± 0.32.

As for LELKFVSSLRRQFEFSVDSFQIVL [TENT5D], the protein stability index runs as follows: (treatment: DMSO) 3.41 ± 0.5; (treatment: MLN4924 1 uM, 8 h) 2.91 ± 0.23.

As for LENDTISKQLTLEQLRREKIDLEN [CCDC6], the protein stability index reads like this: (treatment: DMSO) 4.96 ± 0.27; (treatment: MLN4924 1 uM, 8 h) 4.88 ± 0.23.

With LEQFLSILPKELQGWVREHCPESG [ZSCAN9], the protein stability index reads like this: (treatment: DMSO) 2.5 ± 0.15; (treatment: MLN4924 1 uM, 8 h) 2.71 ± 0.29.

With LERASATLQDLVFDECGITDDQLL [PRAME], the protein stability index reads like this: (treatment: DMSO) 4.65 ± 0.36; (treatment: MLN4924 1 uM, 8 h) 4.71 ± 0.35.

Consider LERYVASLMPLQKSISPWKSPPQL [DENND6A], for which the protein stability index (treatment: DMSO) worked out at 2.16 ± 0.28 and the protein stability index (treatment: MLN4924 1 uM, 8 h) came to 2.21 ± 0.25.

With LESEGKNSKKEEPQELLQSQDFVG [ATE1], the protein stability index is, setting by setting: (treatment: DMSO) 5.73 ± 0.27; (treatment: MLN4924 1 uM, 8 h) 5.54 ± 0.14.

For LFFTALMITVPIGLYFTTKSYIFE [VMA21], the protein stability index runs as follows: (treatment: DMSO) 2.73 ± 0.46; (treatment: MLN4924 1 uM, 8 h) 2.58 ± 0.055.

LFGGEFEDSVFEERPERRSGPPAS [C8orf76]: the protein stability index is, setting by setting: (treatment: DMSO) 4.75 ± 0.18; (treatment: MLN4924 1 uM, 8 h) 4.69 ± 0.2.

Regarding LFRELWRYHFATGVWHQMGTDGYM [KLHDC10], the protein stability index runs as follows: (treatment: DMSO) 3 ± 0.66; (treatment: MLN4924 1 uM, 8 h) 2.8 ± 0.47.

Turning to LFRWPDLQHAVELKPLCGCHSFAA [SMAD6], the protein stability index worked out at 2.27 ± 0.26 (treatment: DMSO) and 2.13 ± 0.49 (treatment: MLN4924 1 uM, 8 h).
